{"source": "the supplement of paper PMC10567573", "parents": {"B1": {"name": "ZNF511 (parent)", "chain": "HLYPADFRFDKPKKSRSPASAEAP"}}}
{"variants_of": "B1", "assay": "protein stability index of a GFP-peptide fusion (GPS, HEK-293T) (PSI 1-6); higher = more stable", "details": "c terminus: a fixed tail appended"}
{"variant": "HLYPADFRFDKPWKSRSPASAEAP", "protein stability index": 2.58}
{"variant": "HLYPADFRFDKPYKSRSPASAEAP", "protein stability index": 3.56}
{"variant": "HLYPADFRFDKPKASRSPASAEAP", "protein stability index": 3.3}
{"variant": "HLYPADFRFDKPKCSRSPASAEAP", "protein stability index": 2.77}
{"variant": "HLYPADFRFDKPKDSRSPASAEAP", "protein stability index": 3.29}
{"variant": "HLYPADFRFDKPKESRSPASAEAP", "protein stability index": 3.23}
{"variant": "HLYPADFRFDKPKFSRSPASAEAP", "protein stability index": 2.26}
{"variant": "HLYPADFRFDKPKGSRSPASAEAP", "protein stability index": 3.22}
{"variant": "HLYPADFRFDKPKHSRSPASAEAP", "protein stability index": 2.37}
{"variant": "HLYPADFRFDKPKISRSPASAEAP", "protein stability index": 2.67}
{"variant": "HLYPADFRFDKPKLSRSPASAEAP", "protein stability index": 3.24}
{"variant": "HLYPADFRFDKPKMSRSPASAEAP", "protein stability index": 3.17}
{"variant": "HLYPADFRFDKPKNSRSPASAEAP", "protein stability index": 3.04}
{"variant": "HLYPADFRFDKPKPSRSPASAEAP", "protein stability index": 2.63}
{"variant": "HLYPADFRFDKPKQSRSPASAEAP", "protein stability index": 2.39}
{"variant": "HLYPADFRFDKPKRSRSPASAEAP", "protein stability index": 2.01}
{"variant": "HLYPADFRFDKPKSSRSPASAEAP", "protein stability index": 3.08}
{"variant": "HLYPADFRFDKPKTSRSPASAEAP", "protein stability index": 2.8}
{"variant": "HLYPADFRFDKPKVSRSPASAEAP", "protein stability index": 2.33}
{"variant": "HLYPADFRFDKPKWSRSPASAEAP", "protein stability index": 2.56}
{"variant": "HLYPADFRFDKPKYSRSPASAEAP", "protein stability index": 2.62}
{"variant": "HLYPADFRFDKPKKARSPASAEAP", "protein stability index": 3.39}
{"variant": "HLYPADFRFDKPKKCRSPASAEAP", "protein stability index": 2.56}
{"variant": "HLYPADFRFDKPKKDRSPASAEAP", "protein stability index": 3.35}
{"variant": "HLYPADFRFDKPKKERSPASAEAP", "protein stability index": 3.18}
{"variant": "HLYPADFRFDKPKKFRSPASAEAP", "protein stability index": 3.04}
{"variant": "HLYPADFRFDKPKKGRSPASAEAP", "protein stability index": 2.86}
{"variant": "HLYPADFRFDKPKKHRSPASAEAP", "protein stability index": 2.93}
{"variant": "HLYPADFRFDKPKKIRSPASAEAP", "protein stability index": 3.23}
{"variant": "HLYPADFRFDKPKKKRSPASAEAP", "protein stability index": 3.24}
{"variant": "HLYPADFRFDKPKKLRSPASAEAP", "protein stability index": 2.92}
{"variant": "HLYPADFRFDKPKKMRSPASAEAP", "protein stability index": 2.88}
{"variant": "HLYPADFRFDKPKKNRSPASAEAP", "protein stability index": 2.67}
{"variant": "HLYPADFRFDKPKKPRSPASAEAP", "protein stability index": 3.19}
{"variant": "HLYPADFRFDKPKKQRSPASAEAP", "protein stability index": 3.19}
{"variant": "HLYPADFRFDKPKKRRSPASAEAP", "protein stability index": 1.78}
{"variant": "HLYPADFRFDKPKKTRSPASAEAP", "protein stability index": 2.4}
{"variant": "HLYPADFRFDKPKKVRSPASAEAP", "protein stability index": 2.36}
{"variant": "HLYPADFRFDKPKKWRSPASAEAP", "protein stability index": 1.93}
{"variant": "HLYPADFRFDKPKKYRSPASAEAP", "protein stability index": 2.51}
{"variant": "HLYPADFRFDKPKKSASPASAEAP", "protein stability index": 3.51}
{"variant": "HLYPADFRFDKPKKSCSPASAEAP", "protein stability index": 2.54}
{"variant": "HLYPADFRFDKPKKSDSPASAEAP", "protein stability index": 3.18}
{"variant": "HLYPADFRFDKPKKSESPASAEAP", "protein stability index": 3.34}
{"variant": "HLYPADFRFDKPKKSFSPASAEAP", "protein stability index": 2.73}
{"variant": "HLYPADFRFDKPKKSGSPASAEAP", "protein stability index": 3.29}
{"variant": "HLYPADFRFDKPKKSHSPASAEAP", "protein stability index": 3.13}
{"variant": "HLYPADFRFDKPKKSISPASAEAP", "protein stability index": 2.6}
{"variant": "HLYPADFRFDKPKKSKSPASAEAP", "protein stability index": 3.36}
{"variant": "HLYPADFRFDKPKKSLSPASAEAP", "protein stability index": 2.97}
{"variant": "HLYPADFRFDKPKKSMSPASAEAP", "protein stability index": 3.28}
{"variant": "HLYPADFRFDKPKKSNSPASAEAP", "protein stability index": 3.17}
{"variant": "HLYPADFRFDKPKKSPSPASAEAP", "protein stability index": 3.2}
{"variant": "HLYPADFRFDKPKKSQSPASAEAP", "protein stability index": 3.28}
{"variant": "HLYPADFRFDKPKKSSSPASAEAP", "protein stability index": 2.76}
{"variant": "HLYPADFRFDKPKKSTSPASAEAP", "protein stability index": 3.44}
{"variant": "HLYPADFRFDKPKKSVSPASAEAP", "protein stability index": 2.51}
{"variant": "HLYPADFRFDKPKKSWSPASAEAP", "protein stability index": 3.05}
{"variant": "HLYPADFRFDKPKKSYSPASAEAP", "protein stability index": 2.13}
{"variant": "HLYPADFRFDKPKKSRAPASAEAP", "protein stability index": 2.61}
{"variant": "HLYPADFRFDKPKKSRCPASAEAP", "protein stability index": 2.9}
{"variant": "HLYPADFRFDKPKKSRDPASAEAP", "protein stability index": 3.28}
{"variant": "HLYPADFRFDKPKKSREPASAEAP", "protein stability index": 3.18}
{"variant": "HLYPADFRFDKPKKSRFPASAEAP", "protein stability index": 2.7}
{"variant": "HLYPADFRFDKPKKSRGPASAEAP", "protein stability index": 2.63}
{"variant": "HLYPADFRFDKPKKSRHPASAEAP", "protein stability index": 2.86}
{"variant": "HLYPADFRFDKPKKSRIPASAEAP", "protein stability index": 2.03}
{"variant": "HLYPADFRFDKPKKSRKPASAEAP", "protein stability index": 3.01}
{"variant": "HLYPADFRFDKPKKSRLPASAEAP", "protein stability index": 2.9}
{"variant": "HLYPADFRFDKPKKSRMPASAEAP", "protein stability index": 2.77}
{"variant": "HLYPADFRFDKPKKSRNPASAEAP", "protein stability index": 3.16}
{"variant": "HLYPADFRFDKPKKSRPPASAEAP", "protein stability index": 2.83}
{"variant": "HLYPADFRFDKPKKSRQPASAEAP", "protein stability index": 3}
{"variant": "HLYPADFRFDKPKKSRRPASAEAP", "protein stability index": 3.29}
{"variant": "HLYPADFRFDKPKKSRTPASAEAP", "protein stability index": 2.97}
{"variant": "HLYPADFRFDKPKKSRVPASAEAP", "protein stability index": 2.28}
{"variant": "HLYPADFRFDKPKKSRWPASAEAP", "protein stability index": 2.27}
{"variant": "HLYPADFRFDKPKKSRYPASAEAP", "protein stability index": 2.29}
{"variant": "HLYPADFRFDKPKKSRSAASAEAP", "protein stability index": 2.22}
{"variant": "HLYPADFRFDKPKKSRSCASAEAP", "protein stability index": 2.97}
{"variant": "HLYPADFRFDKPKKSRSDASAEAP", "protein stability index": 3.09}
{"variant": "HLYPADFRFDKPKKSRSEASAEAP", "protein stability index": 2.74}
{"variant": "HLYPADFRFDKPKKSRSFASAEAP", "protein stability index": 2.3}
{"variant": "HLYPADFRFDKPKKSRSGASAEAP", "protein stability index": 2.58}
{"variant": "HLYPADFRFDKPKKSRSHASAEAP", "protein stability index": 2.74}
{"variant": "HLYPADFRFDKPKKSRSIASAEAP", "protein stability index": 2.96}
{"variant": "HLYPADFRFDKPKKSRSKASAEAP", "protein stability index": 3.08}
{"variant": "HLYPADFRFDKPKKSRSLASAEAP", "protein stability index": 2.73}
{"variant": "HLYPADFRFDKPKKSRSMASAEAP", "protein stability index": 2.78}
{"variant": "HLYPADFRFDKPKKSRSNASAEAP", "protein stability index": 2.34}
{"variant": "HLYPADFRFDKPKKSRSQASAEAP", "protein stability index": 2.56}
{"variant": "HLYPADFRFDKPKKSRSRASAEAP", "protein stability index": 2.79}
{"variant": "HLYPADFRFDKPKKSRSSASAEAP", "protein stability index": 2.97}
{"variant": "HLYPADFRFDKPKKSRSTASAEAP", "protein stability index": 3.52}
